Experiment [1] addresses recombinant human tetranectin (TN), residue 22-202 with a C-terminal histidine tag (human) (UniProt P05452). Put plainly: OpenSPR; TN on the chip, HMGB1 applied (FIG. 5A, Lower Panel, per paragraph 223).
The target is the same in experiment [2]. Put plainly: OpenSPR; TN chip with against without mAb8 (29.6 nM) pre-treatment.
Experiment [3] shares this target. Put plainly: OpenSPR; TN chip, HMGB1 200 nM, without mAb8 pre-treatment.
The target is the same in experiment [4]. Put plainly: OpenSPR; TN chip pre-treated with mAb8 (29.6 nM), HMGB1 200 nM.
Experiment [5] shares this target. Put plainly: OpenSPR; TN immobilized on the chip, HMGB1 applied at 400, 200, 100 and 25 (no unit on the sheet) [A) lower panel].
The target is the same in experiment [6]. Put plainly: OpenSPR; TN chip pre-treated with mAb8 (29.6 nM), HMGB1 at various concentrations.
In experiment [7] the target is recombinant CBP-HMGB1 (rat HMGB1 with a calmodulin-binding peptide tag) (rat) (UniProt P63159). Put plainly: OpenSPR; TN or HMGB1 on the chip (His-tag or carboxyl groups); this end taken as HMGB1 on chip, TN applied (inferred, since 2.88 nM is tied to the TN chip at paragraph 223).
Experiment [8] has the same target. Put plainly: OpenSPR; HMGB1 immobilized on the chip, TN applied at 280, 93, 31 and 10 (no unit on the sheet) [A) upper panel].

recombinant CBP-HMGB1 (rat HMGB1 with a calmodulin-binding peptide tag) (rat), sequence (P63159 whole entry, form in doubt): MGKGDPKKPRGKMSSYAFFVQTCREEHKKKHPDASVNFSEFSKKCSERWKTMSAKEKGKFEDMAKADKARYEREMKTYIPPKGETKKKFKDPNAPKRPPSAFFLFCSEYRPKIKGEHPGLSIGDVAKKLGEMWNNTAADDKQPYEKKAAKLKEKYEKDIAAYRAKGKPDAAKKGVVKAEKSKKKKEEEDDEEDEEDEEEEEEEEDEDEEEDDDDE

The term Kd denotes the constant that tells how readily two partners part at equilibrium. Consider “recombinant CBP-HMGB1 (rat HMGB1 with a calmodulin-binding peptide tag) (from UniProt P63159 1-215)”, for which the Kd in experiment [1] is 1.21 to 2.88 nM; in experiment [5], 2.88 nM; in experiment [6], 18.5 nM. Moreover, in experiment [2], the fold increase of KD turned out to be 6 fold. The results for the SPR response signal in experiment [3] and in experiment [4] were 150 AU and 35 AU, respectively.

Turning to “recombinant human tetranectin (TN), residue 22-202 with a C-terminal histidine tag (from UniProt P05452 22-202)”, the Kd in experiment [7] was 1.21 to 2.88 nM; in experiment [8] it was 1.21 nM.
